Results on 1 molecule are retold here after article PMC3025051 (Cell cycle (Georgetown, Tex.), 2011).

For the assay, the target named is T1, MAL-Myc-tagged Cdc18 wild type (bacterial recombinant) (S. pombe, UniProt P41411 1-577).
T1 sequence (looked up): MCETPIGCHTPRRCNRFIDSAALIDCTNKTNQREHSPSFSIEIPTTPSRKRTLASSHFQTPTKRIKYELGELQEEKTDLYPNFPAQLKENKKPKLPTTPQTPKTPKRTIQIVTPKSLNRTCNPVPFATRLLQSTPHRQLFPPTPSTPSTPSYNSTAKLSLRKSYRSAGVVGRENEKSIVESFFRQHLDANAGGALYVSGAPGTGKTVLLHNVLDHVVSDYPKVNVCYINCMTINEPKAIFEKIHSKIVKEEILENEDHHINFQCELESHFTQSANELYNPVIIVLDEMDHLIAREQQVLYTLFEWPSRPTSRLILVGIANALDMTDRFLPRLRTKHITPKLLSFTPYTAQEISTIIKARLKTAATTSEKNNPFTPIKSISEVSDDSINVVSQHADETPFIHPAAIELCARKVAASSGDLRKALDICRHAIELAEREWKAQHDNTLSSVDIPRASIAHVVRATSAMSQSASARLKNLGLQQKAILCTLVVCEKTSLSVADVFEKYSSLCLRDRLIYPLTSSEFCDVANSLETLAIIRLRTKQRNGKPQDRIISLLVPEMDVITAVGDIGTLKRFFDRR
In words: pull-down.

B1: 6his-FLAG-Swi6 wild type (bacterial recombinant) (natural protein, S. pombe, UniProt P40381 1-328, looked up)
chain: MKKGGVRSYRRSSTSKRSVIDDDSEPELPSMTKEAIASHKADSGSSDNEVESDHESKSSSKKLKENAKEEEGGEEEEEDEYVVEKVLKHRMARKGGGYEYLLKWEGYDDPSDNTWSSEADCSGCKQLIEAYWNEHGGRPEPSKRKRTARPKKPEAKEPSPKSRKTDEDKHDKDSNEKIEDVNEKTIKFADKSQEEFNENGPPSGQPNGHIESDNESKSPSQKESNESEDIQIAETPSNVTPKKKPSPEVPKLPDNRELTVKQVENYDSWEDLVSSIDTIERKDDGTLEIYLTWKNGAISHHPSTITNKKCPQKMLQFYESHLTFRENE
Consider B1, for which the binding result is recorded as “binds”.
